assay: yeast display, Sf9 membrane polyspecificity reagent, FACS + sequencing; frameworks hold sequencing errors
In short: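 Nanobodies from a synthetic yeast display library (Saccharomyces cerevisiae BJ5465), induced 36–48 hours with galactose, were stained 1 hour at 4 °C with 10% biotinylated, detergent-solubilized Sf9 membrane reagent, enriched on streptavidin microbeads, then FACS-sorted. Anti-HA (expression) and streptavidin (reagent binding) fluorescence set low and high (top ~1%) gates. Polyreactivity labels come from the gate of origin. Genes were colony-PCR amplified, MiSeq 2 × 250 sequenced and filtered by CDR length.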

Sequence	polyreactivity (PSR sort gate)
QVQLVESGGGLVQAGGSLRLSCAASGRIFWDYAMGWYRQAPGKERELVAVITFSGDSTYYADSVKGRFTISRDNAKHTVYIQMNSLKPEDTAVYYCAAARAIRQFWYVATFEYWGQGTLVTVSS	low polyreactivity
QVQLVESGGGLVQEGGSLRLSCAASGYIFYYYAMGRYIQAPGKERELVAAISTSDTRTFYADSVKGRFTISRDNAKNTVYLQMNSRKPEDTAVYFCAASLYKGGPNYGYEYWGQGTQVTVSS	low polyreactivity
QVQLVESGGGLVQAGGSLRLSCAASGIIFYINAMGWYRQAPGKERELFADISSGDRTYYADSVKGRFTISRDNAKNTVYLQMNSLKPEDTAVYYCAAESYSGFVAGHTSLDDYWGQGTQVTVSS	low polyreactivity
QVQLQERGGGLVQAGGSLRQRCAASRNISASSDLGWYHQAPGKEREFVASITSGGTTYYADSVKGRFTISRDNAKNTVYLQMNSLKPEDTAVYYCAVGDPADAEFGYWGKGTQVTVSS	low polyreactivity
QVLLVESGGGLVQAGGSLRLSCAASGRIFDDYAMGWYRQAPGKESELVAAITSGGRTYYADSVKGRFTISRDNAKNTVYLKMHSLKPDDTAVYYCAAQYGWFYEFVYWGQGTPVTVSS	high polyreactivity
QVQLVESGGGLVQAGGSLRLSCAASGFTFQYYTMGWYRQAPGKERELLAAITYSGSTYYADSVKGRFTISRDNAKNTVYLQMNSLKPEDTAVYYCNVYRGRYLYAWRPLGYWGQGTQVTVSS	high polyreactivity
QVQLVESGGGLVQAGGSLRLSCAASGFTFQNYAMGWYRQAPGKERELVAAISWGGGSTYYADSVKGRFTISRDNAQNTVYLQMNSLKPEDTAVYYCNAYEYLSAGYDYWGQGTQVTVSS	low polyreactivity
QVQLVESGGGLVQAGGSLRLSCAASGRTFVLYAMGWYRQAPGKERELVASITSGGSTNYADSVKGRFTISRDNAKNTVYLQMNSLKPEDTAVYYCNADLDVYLWFIFTVYQDDYDYWGQGTQVTVSS	high polyreactivity
QVQLVESGGGLVQAGGSLRLSCAASGFTFPWYAMGWYRQAPGKERELVASISYRGDSTYYSDSVKGRFTISRDNAKNTVYLQMNSLKPEDTAVYYCADDYLWYNYAGQVDHDYDYWGQGTQVTVSS	low polyreactivity
QVQLVESGGGLVQAGGSLRLSCAASGLTFIGYVMGWYRQAPGKERELVAAISGSGGSTYYADSVKGRFTISRDNAKNTVYLQMNSLKPEDTAVYYCAARSRVLTRYDYWGQGTQVTVSS	high polyreactivity
QVQLVESGGGLVQAGGSLRLSCAAYGITFYLYAMGWYIQAPGKERELVAAITSSGGSTYYADSVKGRFTISRDNAKNTVYFQMNSLKPEDTAVYYCNALYFSQDRYDYWGQGTQVTVSS	high polyreactivity
QVQLVESGGGLVQAGGSLRLSCAASGSTFYVYAMGWYRQAPGKDRELVAAITFSGGSTYADSVKGRFTISRDNAKNTVYLQMNSLKPEDTAVYYCATDERGRYTVVYVDEFLYDYWGQGTQVTVSS	low polyreactivity
QVQLVESGGGLVQAGGSLRISCAASGNIFDIYAMGWYRQAPGKERELVAAITSGVRTYYADSVKGRFTISRDNAKNTVYLQMNSLKPEDTSVYYCNAVWRRSHAYGYWGQGTQVTVSS	low polyreactivity
QVQLVESGGGLVQAGGSLRLSCASSGRIFWRNAMGWYRQAPGKERELVAAITSGGRTNYADSVKGRFTISRDNAKNPVYLQMNSLKPEDTAVYYCNALWRGRYGYWGQGTQVTVSS	high polyreactivity
QVQLVESGGGLVQAGGSLRLSCAASGRTFGLYDMGWYRQAPGKERELVAGITRRGGRTYYADSVKGRFTISRDNAKNTVYLQMNSLKPEDTAVYYGAAGTLYLRHAQSPFDYWGQGTQVTVSS	high polyreactivity
QVQLVESGGGLVQAGGSLRLSCAASGRTFDYNAMGWYRQAPGKERELFAAISQSGGRTYYADSVKGRFTISRDNAKNTVYLQMYSLKPVDTAVYYCAAEAYGNRDYWGQGTQVTVSS	low polyreactivity

Sequence	polyreactivity (PSR sort gate)
QVQLVESGGGLVQAGGRLRLSCAASGSIFGTNAMGWYRQAPGKERELVAAISSSGTSTYYADSVKGRFTISRDNAKNTVYLQMNSLKPEDTAVYYCAAATNWGGEYWGQGTQVTVSS	high polyreactivity
QVQLVESGGGLVQAGGSLRLSSDASGRIFYVYTMGWYRQAPGKEREFVAAISDSGGSTYYADSVKGRFTISRDNAKNTVYLQMNSLQTEDTAVYYCNAGYGPAAYYWYYGGYYYWGQGTQVTVSS	low polyreactivity
QFQHVESGGGLDQARGRLRLSCAASGYTFAKYTMGSYRQAPGKERELVAAISRGGSTTYADSVKGRFTISRDNAKNTVYLQMNSLKPEDTAVYDCAASGTKREDGYSLGYPRAGDYWGQGTQVTVSS	low polyreactivity
QVQLVESGGGLVQAGGSLRLSCAASGSTFASNVMGWYRQAPGKERELVAAITRGDRTHYADSVKGRFTISRDNAKNTVYLQMNSLKPEDTAVYYCAARFIFWVYDYDYWGQGSQVTVSS	low polyreactivity
QVQLVESGGGLVQAGGSLRLSCAASGFTFVSNAMGWYRQAPGKERELVAAISGSGGSTYYADSVKGRFTISRDNAKNTVYLQMNSLKPEDTAVYYCAKGSRSYVRKMDYWGQGTQVTVSS	low polyreactivity
QVQLVESGGGLVQAGGSLRLSCAASGIIFYKFAMGWYRQAPGKERELVASISRRGGNTYYADSVKGRCTISRDNAKNTVYLQMNSLKPEDTAVYDSAAPKRSNEPYDYWGQGTQVTVSS	high polyreactivity
QVQLVESGGGLVQAGGSLRLSCAASGRIFRYYAMGWYRQAPGKESELVAAITASGGSTYYADSVKGRFTISRDNAKNTVYLQMNSLKPEDTAVYYCATEYVVYRSWVPKYGYWGQGTQVTVSS	high polyreactivity
QDQLVESGGGLVQAGGSLRLSCAASAFTFGRNAKGWYRQATGKERELVATITWSGGSTYYADSVKGRFTISRDNAKNTVYLQMNSLKPEDTAVYYCAKQRRYWGQPSRAYEFNYWGQGTQVTVSS	high polyreactivity
QVQLVESGGGLVQAGGSLRLSCAASGRTFSWYAMGWYRQAPGKERELVAAITRDGGNTYYADSVKGRFTISRDHAKNTVYLQMNSLKPEDTAVYYCAKRGYVNYYCGQGTQVTVSS	high polyreactivity
QVQLVESGGGLVQAGGSLRLSCAASGITFDQNAMGWYRQAPGKEREFVAAISVSGGRTYYADSVKGRFTISRDNAKNTVYLQMNSLKPEDTAVYYCAAYGGTRYYYSYYYWGQGTQVTVSS	high polyreactivity
QVQLQESGGGLVQADGSLRLSCAASGTIFTQSYMGWYRQAPGKEREFVAGISNGTNTNYGDSVKGRFTISRDNAKNTVYLQMNSLKLEDTAVYYCAVKGFYVDVLAYWGQGTHVTVSS	high polyreactivity
QVQLVESGGGLVQAGGSLRLSCAGSGSTFGRYAMGWYRQAPGKERELVAAITSDTGNTNYADSVKGRFTISRDNAKNTVYLQMNSLKPEDTAVYYCAAATFWVLWGHVIGNYDSWGQGTQVTVSS	low polyreactivity
QVQLVESGGGLVQAGGSLRLSCAASGLTFVDYAMGWYRQAPGKERELVAAITSSGGSITYYADSVKGRFTISRDNAKNTVYLQMNSLKPEDTAVYYCNADYGIYTDSFRGPDYESWGQGTQVTVSS	low polyreactivity
QVQLVDSGGGLVQAGGSLRLSCAASGSIFNVYAMGWYRQAPGKERELVAAITGSGGRTYYADSVKGRFTISRDNAKNTVYLQMNSLKPEDTAVYYCAATTRPGYRYEGDYWGQGTQVTVSS	low polyreactivity
QVQLVESGGGLVQAGGSLRLSCAASGRIFPTYTMGWYRQAPGKERELVAAISGRGGNTYYADSVKGRFTISRDNAKNTVYLQMNSLKPEDTAVYYCAARYPVRNGYWGQGTQVTVSS	high polyreactivity

Reference: the nanobody polyreactivity screen of Harvey et al. (2022)
